Measurements: patent publication US20110152358A1, “Compositions and Methods for Diagnosis and Treatment of Pancreatic Ductal Cancer” (priority 2008, published 2011)

Key:
Type in all cases: cell-based, human
T3M4 cells [1] = experiment: in vitro wound-healing (migration) assay, shRNA infected T3M4 cells; conditions: serum free; 24 hours; percentage change in wound area
Protocol: To assess the motility properties, in vitro wound-healing assays or migration assays were performed. Cells were grown to confluence in 6-well tissue culture plates, serum starved overnight, and the monolayer was scratched with a 200 μL pipette tip generating two parallel wounds. The scratched wells were washed to remove cell debris and incubated for the next 24 hours in serum free media in the absence or presence 1 nmol/L EGF with or without the Src family kinase inhibitor PP2 (4-amino-5-(4-chlorophenyl)-7-(t-butyl)pyrazolo[3,4-d]pyrimidine) (Alexis, La Jolla, Calif.). To monitor cell migration, photographs were taken of each well at five marked locations under 40× magnification immediately after wounding (t0) and again 24 hours after wounding (t24), using an inverted microscope fitted with a digital camera (Nikon Diaphot 300, Nikon, Japan). The wound area of five matched pictures at t0 and t24 from each well were then measured using the ImageJ software (NIH, Bethedsa, Md.), and the percentage change in the wound area was calculated.

T3M4 cells [2] = experiment: cisplatinum induced apoptosis, immunoblot of cleaved PARP and cleaved caspase-3, shRNA infected T3M4 cells; conditions: cisplatinum 10 νg/mL for 2, 6, or 24 hours
Protocol: Sham or 14-3-3σ transfected PANC-1 cells were incubated for 24 hours in complete medium in the absence or presence of 10 μg/mL of cisplatinum. Scrambled or 14-3-3σ specific shRNA infected T3M4 cells were incubated in complete medium for 24 hours that was supplemented with 10 μg/mL cisplatinum for the initial 2 or 6 hours, or the entire 24 hours. Both floating and adherent cells were then collected and lysed in the buffer containing protease inhibitors, subjected to 10% SDS-PAGE, and immunoblotted with specific antibodies against cleaved Poly (ADP-ribose) Polymerase (PARP) and cleaved caspase-3 (Cell Signaling Technology, Danvers, Mass.).

14-3-3σ = experiment: downregulation of 14-3-3σ by lentiviral shRNA in T3M4 cells (western blotting, Q-PCR); conditions: for 14-3-3σ levels: MOI of 40

B1: sh1: lentiviral shRNA targeting 14-3-3σ, SEQ ID NO: 24 (sense) and 25 (antisense) (nucleic acid)
sense: TCGAGACAACCTGACACTGTTTCAAGAGAACAGTGTCAGGTTGTCTCGTTTTTTC
antisense: TCGAGAAAAAACGAGACAACCTGACACTGTTCTCTTGAAACAGTGTCAGGTTGTCTCGA
- basal motility of shRNA infected cells (T3M4 cells [1]): 20%
- sensitivity of shRNA infected cells to cisplatinum versus control cells (T3M4 cells [2]): significantly more sensitive than control cells
- 14-3-3σ levels (14-3-3σ): reduce

B2: sh2: lentiviral shRNA targeting 14-3-3σ, SEQ ID NO: 26 (sense) and 27 (antisense) (nucleic acid)
sense: TGGAGAGAGCCAGTCTGATCTTCAAGAGAGATCAGACTGGCTCTCTCCTTTTTTC
antisense: TCGAGAAAAAAGGAGAGAGCCAGTCTGATCTCTCTTGAAGATCAGACTGGCTCTCTCCA
- basal motility of shRNA infected cells (T3M4 cells [1]): 20%
- sensitivity of sh2 infected cells to cisplatinum compared to sh1 (T3M4 cells [2]): relatively more sensitive
- sensitivity of shRNA infected cells to cisplatinum versus control cells (T3M4 cells [2]): significantly more sensitive than control cells
- knockdown of 14-3-3σ, sh2 relative to sh1 (14-3-3σ): more effective than sh1
- 14-3-3σ levels (14-3-3σ): reduce

B3: shCtrl: scrambled control shRNA not targeting any known mammalian gene, SEQ ID NO: 28 and 29 (nucleic acid)
chain 1: TACGAGCGAGGTGCCGATATTTCAAGAGAATATCGGCACCTCGCTCGTTTTTTTC
chain 2: TCGAGAAAAAAACGAGCGAGGTGCCGATATTCTCTTGAAATATCGGCACCTCGCTCGTA
- basal motility of shRNA infected cells (T3M4 cells [1]): 20%
- 14-3-3σ levels (14-3-3σ): did not alter
